Data: PMC9436414

B1: BhcA (Paracoccus denitrificans PD1222) (protein)
chain: MTSQNPIFIPGPTNIPEEMRKAVDMPTIDHRSPVFGRMLHPALEGVKKVLKTTQAQVFLFPSTGTGGWETAITNTLSPGDKVLAARNGMFSHRWIDMCQRHGLDVTFVETPWGEGVPADRFEEILTADKGHEIRVVLATHNETATGVKSDIAAVRRALDAAKHPALLFVDGVSSIGSMDFRMDEWGVDIAVTGSQKGFMLPPGLAIVGFSPKAMEAVETARLPRTFFDIRDMATGYARNGYPYTPPVGLINGLNASCERILAEGLENVFARHHRIASGVRAAVDAWGLKLCAVRPELYSDSVSAIRVPEGFDANLIVSHALETYDMAFGTGLGQVAGKVFRIGHLGSLTDAMALSGIATAEMVMADLGLPIQLGSGVAAAQEHYRQTTAAAQKKAA
B2: DadA (Escherichia coli K-12) (protein)
chain: MRVVILGSGVVGVASAWYLNQAGHEVTVIDREPGAALETSAANAGQISPGYAAPWAAPGVPLKAIKWMFQRHAPLAVRLDGTQFQLKWMWQMLRNCDTSHYMENKGRMVRLAEYSRDCLKALRAETNIQYEGRQGGTLQLFRTEQQYENATRDIAVLEDAGVPYQLLESSRLAEVEPALAEVAHKLTGGLQLPNDETGDCQLFTQNLARMAEQAGVKFRFNTPVDQLLCDGEQIYGVKCGDEVIKADAYVMAFGSYSTAMLKGIVDIPVYPLKGYSLTIPIAQEDGAPVSTILDETYKIAITRFDNRIRVGGMAEIVGFNTELLQPRRETLEMVVRDLYPRGGHVEQATFWTGLRPMTPDGTPVVGRTRFKNLWLNTGHGTLGWTMACGSGQLLSDLLSGRTPAIPYEDLSVARYSRGFTPSRPGHLHGAHS

Legend:
Assay in all cases: purified protein
purified protein [1] = substrate: N[C@@H](CO)C(=O)O; conditions: 7 mM oxaloacetate as acceptor, 50 mM HEPES/KOH pH 7.5, 37 °C, pH 7.5
purified protein [2] = substrate: O=C(O)CC(=O)C(=O)O; conditions: 100 mM serine as amine donor, 50 mM HEPES/KOH pH 7.5, 37 °C, pH 7.5
purified protein [3] = substrate: N[C@H](CO)C(=O)O; conditions: DCPIP-coupled assay, 37 °C, exact D-serine reaction mix not stated
purified protein [4] = substrate: C[C@@H](N)C(=O)O; conditions: 200 mM HEPES/KOH pH 7.5, 0.1 mM DCPIP, 1.5 mM PES, 10 mM KCN, 37 °C, pH 7.5

Row | Protein | Km (purified protein [1]) | kcat (purified protein [1]) | Km (purified protein [2]) | kcat (purified protein [2]) | kcat/Km (purified protein [2]) | Km (purified protein [3]) | kcat (purified protein [3]) | kcat/Km (purified protein [3]) | Km (purified protein [4]) | kcat (purified protein [4]) | kcat/Km (purified protein [4])
1 | B1 | 7 mM | 25.9 s⁻¹ | 0.23 ± 0.03 mM | 31.2 s⁻¹ | 140000 M⁻¹ s⁻¹ | – | – | – | – | – | –
2 | B2 | – | – | – | – | – | 64.77 ± 9.28 mM | 0.37 s⁻¹ | 5.71 M⁻¹ s⁻¹ | 1.26 ± 0.26 mM | 0.81 s⁻¹ | 642 M⁻¹ s⁻¹
